Results reported in the supplement of paper PMC9428881.
± gives the standard error.

test: background-corrected fluorescence of 3'-dye-labeled ssDNA relative to brightest sequence (3'-GCGCG) (fraction); higher = brighter dye fluorescence (less quenching); conditions: dye: Cy5 (3' terminal)
Method in brief: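 Each of 1024 permuted pentamers was synthesized as single-stranded DNA on glass slides by light-directed phosphoramidite chemistry, with a 3' Cy3 or Cy5 dye alongside. Arrays were scanned at 532 or 635 nm before and after overnight deprotection with ethylenediamine/ethanol. Values average 10 features per array across at least 3 syntheses. The fluorescence readout, with unlabeled-oligo background removed, is given relative to the brightest sequence.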

Sequence	background-corrected fluorescence
TTTTTTGATGATCATGATGATTTTTTTTTTTTTTTCCGCC	0.33 ± 0.022
TTTTTTGATGATCATGATGCTTTTTTTTTTTTTTTCCGCA [ACGCC]	0.475 ± 0.024
TTTTTTGATGATCATGCGCATTTTTTTTTTTTTTTCCGAT [TAGCC]	0.435 ± 0.022
TTTTTTGATGATCATGCTCATTTTTTTTTTTTTTTCCGAG [GAGCC]	0.501 ± 0.072
TTTTTTGATGATCATGCTGATTTTTTTTTTTTTTTCCGAC [CAGCC]	0.374 ± 0.068
TTTTTTGATGATCATGCTGCTTTTTTTTTTTTTTTCCGAA [AAGCC]	0.49 ± 0.031
TTTTTTGATGATGAGCAGCATTTTTTTTTTTTTTTCCCTT	0.359 ± 0.025
TTTTTTGATGATGAGCATCATTTTTTTTTTTTTTTCCCTG [GTCCC]	0.364 ± 0.024
TTTTTTGATGATGAGCATGATTTTTTTTTTTTTTTCCCTC [CTCCC]	0.26 ± 0.019
TTTTTTGATGATGAGCATGCTTTTTTTTTTTTTTTCCCTA [ATCCC]	0.35 ± 0.019
TTTTTTGATGATGATCAGCATTTTTTTTTTTTTTTCCCGT [TGCCC]	0.48 ± 0.021
TTTTTTGATGATGATCATCATTTTTTTTTTTTTTTCCCGG [GGCCC]	0.562 ± 0.072
TTTTTTGATGATGATCATGATTTTTTTTTTTTTTTCCCGC [CGCCC]	0.419 ± 0.034
TTTTTTGATGATGATCATGCTTTTTTTTTTTTTTTCCCGA [AGCCC]	0.554 ± 0.034
TTTTTTGATGATGATGAGCATTTTTTTTTTTTTTTCCCCT	0.312 ± 0.016
TTTTTTGATGATGATGATCATTTTTTTTTTTTTTTCCCCG [GCCCC]	0.377 ± 0.026
TTTTTTGATGATGATGATGATTTTTTTTTTTTTTTCCCCC	0.251 ± 0.018
TTTTTTGATGATGATGATGCTTTTTTTTTTTTTTTCCCCA [ACCCC]	0.352 ± 0.021
TTTTTTGATGATGATGCGCATTTTTTTTTTTTTTTCCCAT [TACCC]	0.356 ± 0.015
TTTTTTGATGATGATGCTCATTTTTTTTTTTTTTTCCCAG [GACCC]	0.374 ± 0.025
TTTTTTGATGATGATGCTGATTTTTTTTTTTTTTTCCCAC [CACCC]	0.294 ± 0.044
TTTTTTGATGATGATGCTGCTTTTTTTTTTTTTTTCCCAA [AACCC]	0.386 ± 0.022
TTTTTTGATGATGCGCAGCATTTTTTTTTTTTTTTCCATT [TTACC]	0.357 ± 0.02

Sequence	background-corrected fluorescence
TTTTTTGATGATGCGCATCATTTTTTTTTTTTTTTCCATG [GTACC]	0.361 ± 0.035
TTTTTTGATGATGCGCATGATTTTTTTTTTTTTTTCCATC [CTACC]	0.281 ± 0.02
TTTTTTGATGATGCGCATGCTTTTTTTTTTTTTTTCCATA [ATACC]	0.38 ± 0.033
TTTTTTGATGATGCTCAGCATTTTTTTTTTTTTTTCCAGT [TGACC]	0.458 ± 0.021
TTTTTTGATGATGCTCATCATTTTTTTTTTTTTTTCCAGG [GGACC]	0.511 ± 0.057
TTTTTTGATGATGCTCATGATTTTTTTTTTTTTTTCCAGC [CGACC]	0.395 ± 0.02
TTTTTTGATGATGCTCATGCTTTTTTTTTTTTTTTCCAGA [AGACC]	0.527 ± 0.028
TTTTTTGATGATGCTGAGCATTTTTTTTTTTTTTTCCACT [TCACC]	0.322 ± 0.023
TTTTTTGATGATGCTGATCATTTTTTTTTTTTTTTCCACG [GCACC]	0.386 ± 0.021
TTTTTTGATGATGCTGATGATTTTTTTTTTTTTTTCCACC	0.275 ± 0.026
TTTTTTGATGATGCTGATGCTTTTTTTTTTTTTTTCCACA [ACACC]	0.375 ± 0.055
TTTTTTGATGATGCTGCGCATTTTTTTTTTTTTTTCCAAT [TAACC]	0.394 ± 0.022
TTTTTTGATGATGCTGCTCATTTTTTTTTTTTTTTCCAAG [GAACC]	0.384 ± 0.029
TTTTTTGATGATGCTGCTGATTTTTTTTTTTTTTTCCAAC [CAACC]	0.291 ± 0.02
TTTTTTGATGATGCTGCTGCTTTTTTTTTTTTTTTCCAAA [AAACC]	0.445 ± 0.051
TTTTTTGATGCGCAGCAGCATTTTTTTTTTTTTTTCATTT [TTTAC]	0.38 ± 0.032
TTTTTTGATGCGCAGCATCATTTTTTTTTTTTTTTCATTG [GTTAC]	0.363 ± 0.021
TTTTTTGATGCGCAGCATGATTTTTTTTTTTTTTTCATTC [CTTAC]	0.297 ± 0.021
TTTTTTGATGCGCAGCATGCTTTTTTTTTTTTTTTCATTA [ATTAC]	0.398 ± 0.027
TTTTTTGATGCGCATCAGCATTTTTTTTTTTTTTTCATGT [TGTAC]	0.464 ± 0.032
TTTTTTGATGCGCATCATCATTTTTTTTTTTTTTTCATGG [GGTAC]	0.521 ± 0.075
TTTTTTGATGCGCATCATGATTTTTTTTTTTTTTTCATGC [CGTAC]	0.395 ± 0.026
TTTTTTGATGCGCATCATGCTTTTTTTTTTTTTTTCATGA [AGTAC]	0.579 ± 0.038

Sequence	background-corrected fluorescence
TTTTTTGATGCGCATGAGCATTTTTTTTTTTTTTTCATCT [TCTAC]	0.33 ± 0.034
TTTTTTGATGCGCATGATCATTTTTTTTTTTTTTTCATCG [GCTAC]	0.375 ± 0.026
TTTTTTGATGCGCATGATGATTTTTTTTTTTTTTTCATCC [CCTAC]	0.273 ± 0.017
TTTTTTGATGCGCATGATGCTTTTTTTTTTTTTTTCATCA [ACTAC]	0.372 ± 0.026
TTTTTTGATGCGCATGCGCATTTTTTTTTTTTTTTCATAT [TATAC]	0.397 ± 0.025
TTTTTTGATGCGCATGCTCATTTTTTTTTTTTTTTCATAG [GATAC]	0.422 ± 0.027
TTTTTTGATGCGCATGCTGATTTTTTTTTTTTTTTCATAC	0.314 ± 0.032
TTTTTTGATGCGCATGCTGCTTTTTTTTTTTTTTTCATAA [AATAC]	0.428 ± 0.022
TTTTTTGATGCTCAGCAGCATTTTTTTTTTTTTTTCAGTT [TTGAC]	0.434 ± 0.015
TTTTTTGATGCTCAGCATCATTTTTTTTTTTTTTTCAGTG [GTGAC]	0.463 ± 0.025
TTTTTTGATGCTCAGCATGATTTTTTTTTTTTTTTCAGTC [CTGAC]	0.373 ± 0.086
TTTTTTGATGCTCAGCATGCTTTTTTTTTTTTTTTCAGTA [ATGAC]	0.461 ± 0.022
TTTTTTGATGCTCATCAGCATTTTTTTTTTTTTTTCAGGT [TGGAC]	0.534 ± 0.037
TTTTTTGATGCTCATCATCATTTTTTTTTTTTTTTCAGGG [GGGAC]	0.574 ± 0.026
TTTTTTGATGCTCATCATGATTTTTTTTTTTTTTTCAGGC [CGGAC]	0.469 ± 0.032
TTTTTTGATGCTCATCATGCTTTTTTTTTTTTTTTCAGGA [AGGAC]	0.6 ± 0.034
TTTTTTGATGCTCATGAGCATTTTTTTTTTTTTTTCAGCT [TCGAC]	0.418 ± 0.022
TTTTTTGATGCTCATGATCATTTTTTTTTTTTTTTCAGCG [GCGAC]	0.502 ± 0.043
TTTTTTGATGCTCATGATGATTTTTTTTTTTTTTTCAGCC [CCGAC]	0.321 ± 0.042
TTTTTTGATGCTCATGATGCTTTTTTTTTTTTTTTCAGCA [ACGAC]	0.448 ± 0.027
TTTTTTGATGCTCATGCGCATTTTTTTTTTTTTTTCAGAT [TAGAC]	0.469 ± 0.021
TTTTTTGATGCTCATGCTCATTTTTTTTTTTTTTTCAGAG [GAGAC]	0.462 ± 0.03
